One block for each molecule: values may come before it.
Key:
Format in all cases: biochemical, M. truncatula
[1] = target: Medicago CCR2 (Medicago truncatula, UniProt G7JEE5); assay: CCR enzyme activity assay with purified recombinant Medicago CCR2 expressed in E. coli; details: for CCR2 activity at higher substrate concentrations: substrate inhibition, FIG. 5C,D
Source text: (§1) To assess the potential of Medicago CCRs to produce caffeoyl aldehyde, CCR1 and CCR2 were expressed in E. coli and assayed the purified recombinant enzymes with varying concentrations of each of the four potential substrates, 4-coumaroyl-, caffeoyl-, feruloyl- and sinapoyl-CoAs. Briefly, the coding regions of CCR1 and CCR2 were amplified from the original cDNA clones with introduction of NheI enzyme sites before the ATG start codons, a BamHI site after the CCR1 stop codon, and an XhoI site after the CCR2 stop codon. The primers EpCCR1F and EpCCR1R (see Table 3 below) were used for amplification of CCR1, and EpCCR2F and EpCCR2R were used for amplification of CCR2. The PCR products were cloned into T-vector (Promega). After confirmation by sequencing, both CCR sequences were subcloned into pET28a vector (Novagen) and the resulting constructs introduced into E. coli strain BL21 ([…]) (Novagen). The clones with correct inserts were grown at 37° C. until OD600 reached about 0.6, IPTG was added to a final concentration at 0.25 mM, and culture continued at 16° C. overnight. Induced E. coli cells were harvested by centrifugation at 5,000 g for 10 min, frozen in liquid nitrogen and stored at −80° C.
(§2) All enzyme purification steps were carried out at 4° C. The harvested cells were suspended in extraction buffer (100 mM Hepes-NaOH, pH 7.5, 500 mM NaCl, 10 mM imidazole, 10% glycerol, 10 mM mercaptoethanol, 1 mM EDTA, and 1 mM PMSF), sonicated three times for 20 s and centrifuged at 16,000 g for 10 min. The supernatants were mixed with Ni-NTA His-bind resin (Promega). After washing three times in extraction buffer without PMSF, the recombinant proteins were eluted with elution buffer (100 mM Hepes-NaOH, 10% glycerol, 1 mM EDTA, 10 mM mercaptoethanol, and 500 mM imidazole) and the protein stored at −80 ° C. until assay.
(§3) For CCR enzyme activity assays purified CCR protein (2.5 μg) was mixed with assay buffer (100 mM phosphate pH 6.25, 10 mM 2-mercaptoethanol, 0.2 mM NADPH and cinnamoyl CoA substrates at the indicated concentration) in a final volume of 500 μl. The reaction was carried out at 30° C. for 5 min and then terminated with the addition of 70 μL 24% trichloroacetic acid. The reaction mixture was extracted with ethyl acetate (0.6 ml×3) and the combined organic phases dried under a stream of N2. […] Compounds were identified by comparing their UV spectra and retention times with authentic standards of hydroxycinnamoyl aldehydes, and quantified by means of standard curves with correction for recovery of internal standards. Protein concentrations were determined using Bradford reagent (Bio-Rad). For kinetic analysis at various substrate concentrations, enzyme velocity curves were analyzed using Sigmaplot 10 software (Systat Software Inc.).

[2] = target: Medicago CCR1 (Medicago truncatula, UniProt A0A072VDF2); assay: CCR enzyme activity assay with purified recombinant Medicago CCR1 expressed in E. coli; details: for CCR1 activity with substrate: qualitative, FIG. 5A,C
Source text: as §1
All enzyme purification steps were carried out at 4° C. […]
as §3, with “μl.” for “μl. The reaction was carried out at 30° C. for 5 min and then terminated with the addition of 70 μL 24% trichloroacetic acid. The reaction mixture was extracted with ethyl acetate (0.6 ml×3) and the combined organic phases dried under a stream of N2.”

[3] = substrate: COc1cc(/C=C/C(=O)SCCNC(=O)CCNC(=O)[C@H](O)C(C)(C)COP(=O)(O)OP(=O)(O)OC[C@H]2O[C@@H](n3cnc4c(N)ncnc43)[C@H](O)[C@@H]2OP(=O)(O)O)ccc1O; assay: CCR enzyme activity assay with purified recombinant Medicago CCR2 expressed in E. coli; details: other: CCR2; compound as substrate; S0.5 given in place of Km for coumaroyl and caffeoyl CoAs (sigmoidal velocity curves)
Source text: as §1, §2
(§4) For CCR enzyme activity assays purified CCR protein (2.5 μg) was mixed with assay buffer (100 mM phosphate pH 6.25, 10 mM 2-mercaptoethanol, 0.2 mM NADPH and cinnamoyl CoA substrates at the indicated concentration) in a final volume of 500 μl. The reaction was carried out at 30° C. for 5 min and then terminated with the addition of 70 μL 24% trichloroacetic acid. The reaction mixture was extracted with ethyl acetate (0.6 ml×3) and the combined organic phases dried under a stream of N2. The pellet was re-suspended in 50 μL methanol and 25 μL was subjected to HPLC analysis out on a Beckman System Gold HPLC system consisting of a programmable solvent module 126, a System Gold 508 autosampler and a System Gold 168 diode array detector. A Waters Spherisorb ODS-2 5 μm reverse phase column (5 μm particle, 250×4.6 mm) was used. Compounds were identified by comparing their UV spectra and retention times with authentic standards of hydroxycinnamoyl aldehydes, and quantified by means of standard curves with correction for recovery of internal standards. Protein concentrations were determined using Bradford reagent (Bio-Rad). For kinetic analysis at various substrate concentrations, enzyme velocity curves were analyzed using Sigmaplot 10 software (Systat Software Inc.).

[4] = substrate: CC(C)(COP(=O)(O)OP(=O)(O)OC[C@H]1O[C@@H](n2cnc3c(N)ncnc32)[C@H](O)[C@@H]1OP(=O)(O)O)[C@@H](O)C(=O)NCCC(=O)NCCSC(=O)/C=C/c1ccc(O)cc1; assay: as above; details: other: CCR2; compound as substrate; S0.5 given in place of Km for coumaroyl and caffeoyl CoAs (sigmoidal velocity curves)
Source text: as §1, §2, §4

[5] = substrate: CC(C)(COP(=O)(O)OP(=O)(O)OC[C@H]1O[C@@H](n2cnc3c(N)ncnc32)[C@H](O)[C@@H]1OP(=O)(O)O)[C@@H](O)C(=O)NCCC(=O)NCCSC(=O)/C=C/c1ccc(O)c(O)c1; assay: as above; details: other: CCR2; compound as substrate; S0.5 given in place of Km for coumaroyl and caffeoyl CoAs (sigmoidal velocity curves)
Source text: as §1, §2, §4

[6] = substrate: COc1cc(/C=C/C(=O)SCCNC(=O)CCNC(=O)[C@H](O)C(C)(C)COP(=O)(O)OP(=O)(O)OC[C@H]2O[C@@H](n3cnc4c(N)ncnc43)[C@H](O)[C@@H]2OP(=O)(O)O)cc(OC)c1O; assay: as above; details: other: CCR2; compound as substrate; S0.5 given in place of Km for coumaroyl and caffeoyl CoAs (sigmoidal velocity curves)
Source text: as §1, §2, §4

[7] = substrate: COc1cc(/C=C/C(=O)SCCNC(=O)CCNC(=O)[C@H](O)C(C)(C)COP(=O)(O)OP(=O)(O)OC[C@H]2O[C@@H](n3cnc4c(N)ncnc43)[C@H](O)[C@@H]2OP(=O)(O)O)ccc1O; assay: CCR enzyme activity assay with purified recombinant Medicago CCR1 expressed in E. coli; details: other: CCR1; compound as substrate; mean of three replicate sets of assays
Source text: as §1, §2, §4

[8] = substrate: CC(C)(COP(=O)(O)OP(=O)(O)OC[C@H]1O[C@@H](n2cnc3c(N)ncnc32)[C@H](O)[C@@H]1OP(=O)(O)O)[C@@H](O)C(=O)NCCC(=O)NCCSC(=O)/C=C/c1ccc(O)cc1; assay: as above; details: other: CCR1; compound as substrate; mean of three replicate sets of assays
Source text: as §1, §2, §4

[9] = substrate: CC(C)(COP(=O)(O)OP(=O)(O)OC[C@H]1O[C@@H](n2cnc3c(N)ncnc32)[C@H](O)[C@@H]1OP(=O)(O)O)[C@@H](O)C(=O)NCCC(=O)NCCSC(=O)/C=C/c1ccc(O)c(O)c1; assay: as above; details: other: CCR1; compound as substrate; mean of three replicate sets of assays
Source text: as §1, §2, §4

[10] = substrate: COc1cc(/C=C/C(=O)SCCNC(=O)CCNC(=O)[C@H](O)C(C)(C)COP(=O)(O)OP(=O)(O)OC[C@H]2O[C@@H](n3cnc4c(N)ncnc43)[C@H](O)[C@@H]2OP(=O)(O)O)cc(OC)c1O; assay: as above; details: other: CCR1; compound as substrate; mean of three replicate sets of assays
Source text: as §1, §2, §4

- CCR2 activity relative to CCR1 ([1]; at 20 μM substrate): almost twice as active
- CCR2 activity ([1]; at 50 μM substrate): virtually no activity
- CCR2 activity at higher substrate concentrations [1]: strongly inhibited
Molecule: COc1cc(/C=C/C(=O)SCCNC(=O)CCNC(=O)[C@H](O)C(C)(C)COP(=O)(O)OP(=O)(O)OC[C@H]2O[C@@H](n3cnc4c(N)ncnc43)[C@H](O)[C@@H]2OP(=O)(O)O)cc(OC)c1O [Sinapoyl CoA]

- CCR2 activity at higher substrate concentrations [1]: strongly inhibited
- CCR1 activity with substrate [2]: most active
Molecule: COc1cc(/C=C/C(=O)SCCNC(=O)CCNC(=O)[C@H](O)C(C)(C)COP(=O)(O)OP(=O)(O)OC[C@H]2O[C@@H](n3cnc4c(N)ncnc43)[C@H](O)[C@@H]2OP(=O)(O)O)ccc1O [Feruloyl CoA]

- CCR1 activity relative to CCR2 activity ([2]; at 50 μM substrate (FIG. 5A)): around 7%
- CCR1 activity with substrate [2]: very low activity
Molecule: CC(C)(COP(=O)(O)OP(=O)(O)OC[C@H]1O[C@@H](n2cnc3c(N)ncnc32)[C@H](O)[C@@H]1OP(=O)(O)O)[C@@H](O)C(=O)NCCC(=O)NCCSC(=O)/C=C/c1ccc(O)c(O)c1 [Caffeoyl CoA]

B1: Medicago CCR2 (Medicago truncatula) (protein)
chain: MPAYDNTSSVSGGDQTVCVTGAGGFIASWLVKLLLERGYTVRGTVRNPEDPKNGHLKELEGARERLTLHKVDLLDLQSIQSVVHGCHGVFHTASPVTDNPDEMLEPAVNGTKNVIIASAEAKVRRVVFTSSIGTVYMDPNTSRDVVVDESYWSDLEHCKNTKNWYCYGKTVAEQSAWDIAKENQVDLVVVNPVVVLGPLLQPTINASTIHILKYLNGAAKTYVNATQSYVHVKDVALAHLLVYETNSASGRYICCETALHRGEVVEILAKYFPEYPLPTKCSDEKNPRVKPYKFSNQKLKDLGLEFTPVKQCLYDTVRSLQEKGHLPIPPMQEDSA
- K0.5 [3]: 44.5 ± 4.5 µM
- Vmax [3]: 0.48 ± 0.05 µmol/min
- kcat [3]: 0.302 ± 0.0333 s⁻¹
- kcat/Km [3]: 6670 ± 830 M⁻¹ s⁻¹
- K0.5 [4]: 12.4 ± 1.0 µM
- Vmax [4]: 0.44 ± 0.01 µmol/min
- kcat [4]: 0.29 ± 0.0067 s⁻¹
- kcat/Km [4]: 15000 ± 500 M⁻¹ s⁻¹
- K0.5 [5]: 23.4 ± 0.80 µM
- Vmax [5]: 0.35 ± 0.01 µmol/min
- kcat [5]: 0.15 ± 0.005 s⁻¹
- kcat/Km [5]: 8170 ± 330 M⁻¹ s⁻¹
- K0.5 [6]: 32.7 ± 3.6 µM
- Vmax [6]: 0.32 ± 0.02 µmol/min
- kcat [6]: 0.2 ± 0.0183 s⁻¹
- kcat/Km [6]: 6170 ± 830 M⁻¹ s⁻¹

B2: Medicago CCR1 (Medicago truncatula) (protein)
chain: MPAATAAAAAESSSVSGETICVTGAGGFIASWMVKLLLEKGYTVRGTLRNPDDPKNGHLKKLEGAKERLTLVKVDLLDLNSVKEAVNGCHGVFHTASPVTDNPEEMVEPAVNGAKNVIIAGAEAKVRRVVFTSSIGAVYMDPNRSVDVEVDESCWSDLEFCKKTKNWYCYGKAVAEAAAWDVAKEKGVDLVVVNPVLVLGPLLQPTINASTIHILKYLTGSAKTYANATQAYVHVRDVALAHILVYEKPSASGRYLCAETSLHRGELVEILAKYFPEYPIPTKCSDEKNPRVKPHIFSNKKLKDLGLEFTPVSECLYETVKSLQDQGHLSIPNKEDSLAVKS
- K0.5 [7]: 54.5 ± 3.2 µM
- Vmax [7]: 1.64 ± 0.11 µmol/min
- kcat [7]: 1 ± 0.0342 s⁻¹
- kcat/Km [7]: 19000 ± 1300 M⁻¹ s⁻¹
- K0.5 [8]: 56.8 ± 4.7 µM
- Vmax [8]: 0.25 ± 0.01 µmol/min
- kcat [8]: 0.15 ± 0.00167 s⁻¹
- kcat/Km [8]: 2670 ± 1700 M⁻¹ s⁻¹
- K0.5 [9]: 161 ± 6.8 µM
- Vmax [9]: 0.085 ± 0.0 µmol/min
- kcat [9]: 0.0517 ± 0.0012 s⁻¹
- kcat/Km [9]: 317 ± 0 M⁻¹ s⁻¹
- K0.5 [10]: 7.2 ± 0.4 µM
- Vmax [10]: 0.15 ± 0.01 µmol/min
- kcat [10]: 0.0917 ± 0.00233 s⁻¹
- kcat/Km [10]: 11300 ± 830 M⁻¹ s⁻¹
